Data reported in patent publication US20150065381A1.
“And” between values parts separate entries of the source, which are not always exact repeats. Equal values may be shown once.

What was measured:
[1] = target: HIV-1 envelope of gp160 clone B-Acute-010.c08 (HIV-1); experiment: capture ELISA, original data
[2] = target: HIV-1 envelope of gp160 clone B-Chronic-014.c02 (HIV-1); experiment: capture ELISA, original data
[3] = target: HIV-1 envelope of gp160 clone AG-010.c14 (HIV-1); experiment: capture ELISA, original data
[4] = target: HIV-1 envelope clone G-011.c05 (multiclade gp160 clone panel) (HIV-1); experiment: capture ELISA, original data
[5] = target: HIV-1 envelope of gp160 clone B-Acute-010.c09 (HIV-1); experiment: capture ELISA, original data
[6] = target: HIV-1 envelope clone G-011.c02 (multiclade gp160 clone panel) (HIV-1); experiment: capture ELISA, original data
[7] = target: HIV-1 envelope of gp160 clone AG-010.c11 (HIV-1); experiment: capture ELISA, original data
[8] = target: HIV-1 envelope of gp160 clone B-Acute-008.c11 (HIV-1); experiment: capture ELISA, original data
[9] = target: aMLV envelope (from lysed pseudovirus); experiment: antigen capture ELISA, mAb 7.5 ug/ml, plate 1
[10] = target: BG505 envelope (gp120 monomer released from lysed pseudovirus) (HIV-1); experiment: antigen capture ELISA, mAb 7.5 ug/ml, plate 1
[11] = target: JRFL envelope (gp120 monomer released from lysed pseudovirus) (HIV-1) (UniProt P20871); experiment: antigen capture ELISA, mAb 0.3 ug/ml, plate 1
[12] = target: 16055 envelope (gp120 monomer released from lysed pseudovirus) (HIV-1); experiment: antigen capture ELISA, mAb 0.3 ug/ml, plate 1
[13] = target: JRFL envelope (gp120 monomer released from lysed pseudovirus) (HIV-1) (UniProt P20871); experiment: antigen capture ELISA, mAb 0.3 ug/ml, plate 2
[14] = target: 16055 envelope (gp120 monomer released from lysed pseudovirus) (HIV-1); experiment: antigen capture ELISA, mAb 0.3 ug/ml, plate 2
[15] = target: JRFL envelope (gp120 monomer released from lysed pseudovirus) (HIV-1) (UniProt P20871); experiment: antigen capture ELISA, mAb 0.8 ug/ml, plate 1
[16] = target: 16055 envelope (gp120 monomer released from lysed pseudovirus) (HIV-1); experiment: antigen capture ELISA, mAb 0.8 ug/ml, plate 1
[17] = target: JRFL envelope (gp120 monomer released from lysed pseudovirus) (HIV-1) (UniProt P20871); experiment: antigen capture ELISA, mAb 2.5 ug/ml, plate 2
[18] = target: 16055 envelope (gp120 monomer released from lysed pseudovirus) (HIV-1); experiment: antigen capture ELISA, mAb 2.5 ug/ml, plate 2
[19] = target: JRFL envelope (gp120 monomer released from lysed pseudovirus) (HIV-1) (UniProt P20871); experiment: antigen capture ELISA, mAb 0.8 ug/ml, plate 2
[20] = target: 16055 envelope (gp120 monomer released from lysed pseudovirus) (HIV-1); experiment: antigen capture ELISA, mAb 0.8 ug/ml, plate 2
[21] = target: JRFL envelope (gp120 monomer released from lysed pseudovirus) (HIV-1) (UniProt P20871); experiment: antigen capture ELISA, mAb 7.5 ug/ml, plate 2
[22] = target: 16055 envelope (gp120 monomer released from lysed pseudovirus) (HIV-1); experiment: antigen capture ELISA, mAb 7.5 ug/ml, plate 2
[23] = target: HIV-1 envelope of gp160 clone B-Acute-009-c08 (HIV-1); experiment: capture ELISA, original data
[24] = target: JRFL envelope (gp120 monomer released from lysed pseudovirus) (HIV-1) (UniProt P20871); experiment: antigen capture ELISA, mAb 2.5 ug/ml, plate 1
[25] = target: 16055 envelope (gp120 monomer released from lysed pseudovirus) (HIV-1); experiment: antigen capture ELISA, mAb 2.5 ug/ml, plate 1
[26] = target: JRFL envelope (gp120 monomer released from lysed pseudovirus) (HIV-1) (UniProt P20871); experiment: antigen capture ELISA, mAb 7.5 ug/ml, plate 1
[27] = target: 16055 envelope (gp120 monomer released from lysed pseudovirus) (HIV-1); experiment: antigen capture ELISA, mAb 7.5 ug/ml, plate 1

Row | Substance | ELISA OD [1] [OD] | ELISA OD [2] [OD] | ELISA OD [3] [OD] | ELISA OD (original data) [4] [OD] | ELISA OD [5] [OD] | ELISA OD (original data) [6] [OD] | ELISA OD [7] [OD] | ELISA OD [8] [OD] | ELISA OD [9] | ELISA OD [10] [OD] | ELISA OD [11] | ELISA OD [12] | ELISA OD [13] | ELISA OD [14] | ELISA OD [15] | ELISA OD [16] | ELISA OD [17] | ELISA OD [18] | ELISA OD [19] | ELISA OD [20] | also measured
1 | PG9 (antibody) | 0.547 | 2.42 | 3.69 | 1.25 | 0.685 | 0.068 | 1.06 | 0.75 | 0.084 OD and 0.072 OD | 0.428 |  |  |  |  |  |  |  |  |  |  | 
2 | PG16 (antibody) |  |  |  |  |  |  |  |  | 0.103 OD and 0.072 OD | 0.12 | 0.063 OD and 0.097 OD | 0.101 OD and 0.122 OD | 0.065 OD and 0.075 OD | 0.107 OD and 0.112 OD | 0.064 OD and 0.071 OD | 0.129 OD and 0.11 OD | 0.081 OD and 0.096 OD | 0.195 OD and 0.122 OD | 0.063 OD and 0.061 OD | 0.156 OD and 0.105 OD | ELISA OD [21]: 0.111 OD and 0.136 OD; ELISA OD [22]: 0.155 OD and 0.143 OD
3 | PGT145 (antibody) | 0.211 | 0.077 | 0.081 | 0.301 | 0.075 | 0.077 | 0.101 | 0.178 | 0.098 OD and 0.082 OD | 0.104 |  |  |  |  |  |  |  |  |  |  | ELISA OD [23]: 0.219 OD
4 | PGT151 (antibody) | 0.211 | 0.247 | 0.522 | 0.145 | 0.092 | 0.086 | 0.119 | 0.321 | 0.098 OD and 0.075 OD | 0.094 |  |  |  |  |  |  |  |  |  |  | ELISA OD [23]: 0.264 OD
5 | PGV04 (antibody) |  |  |  |  |  |  |  |  | 0.092 OD and 0.074 OD | 1.37 | 0.344 OD and 0.34 OD | 0.054 OD and 0.065 OD | 0.395 OD and 0.44 OD | 0.079 OD and 0.122 OD | 0.673 OD and 0.722 OD | 0.055 OD and 0.059 OD | 1.55 OD and 1.51 OD | 0.126 OD and 0.095 OD | 0.796 OD and 0.763 OD | 0.073 OD and 0.071 OD | ELISA OD [24]: 1.17 OD and 1.25 OD; ELISA OD [25]: 0.066 OD and 0.071 OD; ELISA OD [26]: 1.94 OD and 1.84 OD; ELISA OD [27]: 0.071 OD and 0.068 OD; ELISA OD [21]: 2.49 OD and 2.36 OD; ELISA OD [22]: 0.108 OD and 0.113 OD
